Measurements published in US20250136673A1.

Target: recombinant human VEGF (R&D Systems, 293-VE-010) (human) (UniProt P15692)
Assay: Octet HTX biosensor kinetics; antibody at 10 ug/mL in 1x kinetics buffer; recombinant human VEGF 200 nM to 3.125 nM

Sequence of UniProt P15692 (P15692 other isoform, or with tags, fused parts or gaps limits assumed): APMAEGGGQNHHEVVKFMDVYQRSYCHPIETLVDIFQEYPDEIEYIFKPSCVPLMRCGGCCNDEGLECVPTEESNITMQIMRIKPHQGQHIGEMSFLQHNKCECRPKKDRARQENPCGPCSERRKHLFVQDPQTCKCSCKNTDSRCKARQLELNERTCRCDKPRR

mouse anti-human VEGF monoclonal antibody (anti-hVEGF MmAb; R&D Systems, MAB293-100)
Kd: 0.229 nM
koff: 7.77e-05 s⁻¹
kon: 340000 M⁻¹ s⁻¹
